# Assay results as given in article doi:10.1101/2024.01.25.576086.
# Assays:
# VHL-LgBiT (human) = VHL-LgBiT (human) (UniProt P40337)
# [1] = target: biotinylated pVHL-Elongin B-Elongin C complex (bio-VBC) (human) (UniProt P40337); assay: SPR
Substance,HiBiT degradation assay of CDO1 in HEK293T cells with compound 8; absDC50 (VHL-LgBiT (human)) [nM],KD with compound 4 [1] [µM]
SmBiT-CDO1 (from UniProt Q16878 1-200) (enzyme),8,–
CDO1(Q99N) (from UniProt Q16878 1-200) (enzyme),–,> 40
